Test results taken from the supplement of paper PMC12764529.
± gives the half width of the 95% confidence interval.

Key:
[1] = folding stability dG unfold from trypsin proteolysis; higher = more stable
Method in brief: (§1)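 Digests were run with trypsin and chymotrypsin at 11 concentrations in threefold dilutions, plus a no-protease condition, on designed mini-proteins in a PA-tagged cDNA display construct. The mini-proteins were under 80 residues, had no cysteine, and were kept only when AlphaFold2 dimer inter-PAE was above 15. After sequencing, Bayesian fitting of the counts gave K50, from which unfolding free energy was derived against a sequence-predicted unfolded-state K50 and a shared folded-state K50, per protease or combined.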

[2] = folding stability dG unfold from chymotrypsin proteolysis; higher = more stable
Method in brief: as §1

[3] = folding stability dG unfold (combined trypsin and chymotrypsin); higher = more stable
Method in brief: as §1

Sequence: SAGGSAGGMLRIKTKDGKEIEITDDEVRIRFADGKKTVTVPAEKLKEALEAAEKAGMEIVEIEPSAGGSAGG [r6_337_TrROS_Hall]
- folding stability dG unfold [1]: 0.00945 ± 0.21 kcal/mol
- folding stability dG unfold [2]: 1.9 ± 0.057 kcal/mol
- folding stability dG unfold [3]: 1.44 ± 0.16 kcal/mol

Sequence: SAGGSAGGMLSPEEAEAIARALEAAGRPVTELVVTEHPEGTATVTLTVRYPDGSTETLPLSLPASAGGSAGG [r6_762_JUSTAS]
- folding stability dG unfold [1]: 1.27 ± 0.035 kcal/mol
- folding stability dG unfold [2]: 0.782 ± 0.1 kcal/mol
- folding stability dG unfold [3]: 1.05 ± 0.2 kcal/mol

Sequence: SAGGSAGGMLTTQETSSDPATNLTTTTTTLTEKDASGNLVPLETTVTTTTSPPAPSTTAPTYAASAGGSAGG [r6_901_JUSTAS]
- folding stability dG unfold [1]: 1.89 ± 0.061 kcal/mol
- folding stability dG unfold [2]: 0.432 ± 0.024 kcal/mol
- folding stability dG unfold [3]: 1.29 ± 0.089 kcal/mol

Sequence: SAGGSAGGMMYVVKITNEDGETLTIEAESEEEALEAARALAEETGREITRIEVRRLSKEEEEEESAGGSAGG [r6_162_TrROS_Hall]
- folding stability dG unfold [1]: 2.28 ± 0.06 kcal/mol
- folding stability dG unfold [2]: 2.787 ± 0.021 kcal/mol
- folding stability dG unfold [3]: 2.64 ± 0.064 kcal/mol

Sequence: SAGGSAGGMPIPPEVTEISFSKLPNGTYRLTITTKDGKTLTDVTFPPDLDPETAVEAAIATVAASAGGSAGG [r6_436_JUSTAS]
- folding stability dG unfold [1]: 1.45 ± 0.028 kcal/mol
- folding stability dG unfold [2]: 1.48 ± 0.06 kcal/mol
- folding stability dG unfold [3]: 1.5 ± 0.053 kcal/mol

Sequence: SAGGSAGGMPLLPLNKEVRVLSVSYIPPNDVVVVRVKGLDNVESTILIPVSLAKNIPISPDSTLSAGGSAGG [r6_910_TrMRF]
- folding stability dG unfold [1]: 0.944 ± 0.024 kcal/mol
- folding stability dG unfold [2]: 0.44 ± 0.059 kcal/mol
- folding stability dG unfold [3]: 0.733 ± 0.056 kcal/mol

Sequence: SAGGSAGGMPPELSEEEVVRRAVERAVRELGVPLEELPPDWRVDARVERVGDEWLVEVDIELPASAGGSAGG [r6_740_TrMRF]
- folding stability dG unfold [1]: 1.33 ± 0.037 kcal/mol
- folding stability dG unfold [2]: 1.68 ± 0.074 kcal/mol
- folding stability dG unfold [3]: 1.57 ± 0.083 kcal/mol

Sequence: SAGGSAGGMPTLVVLREVAEKLEEGQRVRVRFRIPGTDEWVEAEVPINDPELVINFENPEVEEASAGGSAGG [r6_401_TrMRF]
- folding stability dG unfold [1]: 1.06 ± 0.042 kcal/mol
- folding stability dG unfold [2]: 1.48 ± 0.097 kcal/mol
- folding stability dG unfold [3]: 1.33 ± 0.12 kcal/mol

Sequence: SAGGSAGGMPVTPEEARAIAEELRAELGATTVEVEVSPDGRTVTITITSSEDGKVLTRTIEFEASAGGSAGG [r6_550_JUSTAS]
- folding stability dG unfold [1]: 2.25 ± 0.091 kcal/mol
- folding stability dG unfold [2]: 2.33 ± 0.036 kcal/mol
- folding stability dG unfold [3]: 2.29 ± 0.059 kcal/mol

Sequence: SAGGSAGGMRVRLTFPDGSVVELDLSSLPFSPEEVERAGEEELRALLEEAYPDREIELERVPEPSAGGSAGG [r6_165_JUSTAS]
- folding stability dG unfold [1]: 2.13 ± 0.056 kcal/mol
- folding stability dG unfold [2]: 2.93 ± 0.032 kcal/mol
- folding stability dG unfold [3]: 2.63 ± 0.051 kcal/mol

Sequence: SAGGSAGGMRYVTVTVTVPSNGKKYTYTKEIAPDEVFNISEAELAAEFGYPDVVVTVSESPIEDSAGGSAGG [r6_722_JUSTAS]
- folding stability dG unfold [1]: 2.19 ± 0.074 kcal/mol
- folding stability dG unfold [2]: 3.39 ± 0.022 kcal/mol
- folding stability dG unfold [3]: 3.08 ± 0.076 kcal/mol

Sequence: SAGGSAGGMSIKVEVPGPYTVKIYRPDGKPIGEIEGEPGSVIEIDLNVPPGEAKNLIIEVYPTDSAGGSAGG [r6_471_TrMRF]
- folding stability dG unfold [1]: 1.61 ± 0.074 kcal/mol
- folding stability dG unfold [2]: 2.58 ± 0.067 kcal/mol
- folding stability dG unfold [3]: 2.2 ± 0.24 kcal/mol

Sequence: SAGGSAGGMSITINLPNGVTLTITTGDNDVYPITITYPGGETKTLTVTEPLSSISQVISNIVNSSAGGSAGG [r6_27_JUSTAS]
- folding stability dG unfold [1]: 3.38 ± 0.069 kcal/mol
- folding stability dG unfold [2]: 3.28 ± 0.035 kcal/mol
- folding stability dG unfold [3]: 3.33 ± 0.042 kcal/mol

Sequence: SAGGSAGGMTFKDPNSNTTASVTEVTPTSVTVTYTLSDGTTRTVTVPTSLVTPDSTVPFTVTSSSAGGSAGG [r6_152_JUSTAS]
- folding stability dG unfold [1]: 0.983 ± 0.032 kcal/mol
- folding stability dG unfold [2]: 0.789 ± 0.16 kcal/mol
- folding stability dG unfold [3]: 0.892 ± 0.064 kcal/mol

Sequence: SAGGSAGGMTIKIEVNGKIIEIELPEGIKEITKIEIKKDGTITLYIKDNKKKITIKLDKLKKLKSAGGSAGG [r6_369_TrROS_Hall]
- folding stability dG unfold [1]: 1.2 ± 0.09 kcal/mol
- folding stability dG unfold [2]: 3.01 ± 0.1 kcal/mol
- folding stability dG unfold [3]: 2.34 ± 0.27 kcal/mol

Sequence: SAGGSAGGMTITISTGSSGLTVNITLTPPTGPPVTVTISFDPSELEEFLKELPDYEIESITVEGSAGGSAGG [r6_879_JUSTAS]
- folding stability dG unfold [1]: 2.79 ± 0.17 kcal/mol
- folding stability dG unfold [2]: 2.73 ± 0.15 kcal/mol
- folding stability dG unfold [3]: 2.8 ± 0.13 kcal/mol

Sequence: SAGGSAGGMTITTTENPNSNLTTYDVTIGNTKVTVTVNPNNPGVIKTEGDNDVPVEVVINAVLSSAGGSAGG [r6_197_JUSTAS]
- folding stability dG unfold [1]: 1.69 ± 0.059 kcal/mol
- folding stability dG unfold [2]: 0.456 ± 0.043 kcal/mol
- folding stability dG unfold [3]: 1.21 ± 0.056 kcal/mol

Sequence: SAGGSAGGMTPVVVTVTITLPNGEVVEYRVPVAPDELEAAAEAVKEPLEAQGVDVEVEIEAVAASAGGSAGG [r6_721_JUSTAS]
- folding stability dG unfold [1]: 1.99 ± 0.065 kcal/mol
- folding stability dG unfold [2]: 1.5 ± 0.033 kcal/mol
- folding stability dG unfold [3]: 1.7 ± 0.089 kcal/mol

Sequence: SAGGSAGGMTVEIDLDLEVPDGGVRLERLVVDPERPLVLAFLTLEDGTKRVIPFESLEELLERLSAGGSAGG [r6_547_TrMRF]
- folding stability dG unfold [1]: 1.26 ± 0.064 kcal/mol
- folding stability dG unfold [2]: 1.21 ± 0.032 kcal/mol
- folding stability dG unfold [3]: 1.23 ± 0.11 kcal/mol

Sequence: SAGGSAGGMTVTIELPGSTYTVELPSSVKSVSELKVLEDGTLVLTFPSTGTTVTVPIPPPGSHHSAGGSAGG [r6_370_JUSTAS]
- folding stability dG unfold [1]: 1.03 ± 0.059 kcal/mol
- folding stability dG unfold [2]: 0.878 ± 0.13 kcal/mol
- folding stability dG unfold [3]: 1.01 ± 0.11 kcal/mol

Sequence: SAGGSAGGMVEEIIEEFKKKGYNPEVEVRKTSPETTVVTLKLPDKEVIVEVKPLTPEELEEILRSAGGSAGG [r6_786_JUSTAS]
- folding stability dG unfold [1]: 0.371 ± 0.052 kcal/mol
- folding stability dG unfold [2]: 1.05 ± 0.089 kcal/mol
- folding stability dG unfold [3]: 0.824 ± 0.15 kcal/mol

Sequence: SAGGSAGGMVTTKELPSNKTVTVTVTPDPVAGREGATVKPPSTSETKNFGDPAAAAAMSPEKLSSAGGSAGG [r6_740_JUSTAS]
- folding stability dG unfold [1]: 0.42 ± 0.034 kcal/mol
- folding stability dG unfold [2]: 0.2 ± 0.071 kcal/mol
- folding stability dG unfold [3]: 0.29 ± 0.15 kcal/mol

Sequence: SAGGSAGGMVVYLQLPDKEATFFVPPSLSEEEVKERLKKALGDPDAPLTNLKIEEATPEELALESAGGSAGG [r6_122_JUSTAS]
- folding stability dG unfold [1]: -0.153 ± 0.095 kcal/mol
- folding stability dG unfold [2]: 0.515 ± 0.2 kcal/mol
- folding stability dG unfold [3]: 0.222 ± 0.13 kcal/mol

Sequence: SAGGSAGGMVYITVDIKKTDPLNGTEREEVITVKVNPDEVEKVIEELKSAPVNVEILKVTIIPPSAGGSAGG [r6_151_JUSTAS]
- folding stability dG unfold [1]: 1.75 ± 0.075 kcal/mol
- folding stability dG unfold [2]: 1.4 ± 0.043 kcal/mol
- folding stability dG unfold [3]: 1.56 ± 0.065 kcal/mol

Sequence: SAGGSAGGMYVIRVKIYDKETGELIEELTLVFDSEEEAERAVRELAAALPPDVRVEVEIVKLPPSAGGSAGG [r6_688_TrROS_Hall]
- folding stability dG unfold [1]: 5.01 ± 0.18 kcal/mol
- folding stability dG unfold [2]: 4.85 ± 0.059 kcal/mol
- folding stability dG unfold [3]: 4.99 ± 0.096 kcal/mol

Sequence: SAGGSAGGNIDPDDITEVEEETYNFPNGWHIKIDYFRVPDDGQPIMKMEIEPMPPVKPDPNDKKSAGGSAGG [r6_758_TrROS]
- folding stability dG unfold [1]: -0.1 ± 0.11 kcal/mol
- folding stability dG unfold [2]: 1.23 ± 0.14 kcal/mol
- folding stability dG unfold [3]: 0.627 ± 0.25 kcal/mol

Sequence: SAGGSAGGNIKVKVPYERHPDYYYMTVTIYDPGDDKKLELSYMFPPGTKMPAEEWARDIVKDILSAGGSAGG [r6_234_TrROS]
- folding stability dG unfold [1]: 0.789 ± 0.091 kcal/mol
- folding stability dG unfold [2]: 1.29 ± 0.1 kcal/mol
- folding stability dG unfold [3]: 1.13 ± 0.13 kcal/mol
